Target: M. tuberculosis RNA polymerase holoenzyme (M. tuberculosis) (UniProt P9WGZ1)
Assay: single-molecule fluorescence

Q: For “M. tuberculosis GlnR C60SL147C labelled with Alexa Fluor 647 (from UniProt O53830 1-255) (natural protein)”, which stoichiometry N is on record?
A: 4

From doi:10.1101/2023.01.09.523197
